# ± gives the uncertainty stated by the source.
# Assay: self-splicing fitness, log relative to wild type (ln ratio); higher = more splicing; Tetrahymena group I intron in knt gene, E. coli kanamycin selection, DiMSum; sequences stand for … in CUCUCU…GGAGGGAAAAGUUAUCAGGCAUGCACCUGGUAGCUAGUCUUUAAACCAAUAGAUUGCAUCGGUUUAAAAGGCAAGACCGUCAAAUUGCGGGAAAGGGGUCAACAGCCGUUCAGUACCAAGUCUCAGGGGAAACUUUGAGAUGGCCUUGCAAAGGGUAUGGUAAUAAGCUGACGGACAUGGUCCUAACCACGCAGCCAAGUCCUAAGUCAACAGAUCUUCUGUUGAUAUGGAUGCAGUUCACAGACUAAAUGUCGGUCGGGGAAGAUGUAUUCUUCUCAUAAGAUAUAGUCGGACCUCUCCUUAAUGGGAGCUAGCGGAUGAAGUGAUGCAACACUGGAGCCGCUGGGAACUAAUUUGUAUGCGAAAGUAUAUUGAUUAGUUUUGGAGUACUCGUGGUCG
# Outline: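 The eight P1ex-region nucleotides of an intron in the knt kanamycin-resistance gene on pET-22b(+) were all randomised and the library put into E. coli BL21(DE3). Six replicate transformations were grown overnight at 37°C or 30°C on LB agar with or without 25 μg/mL kanamycin, together with 100 μg/mL carbenicillin, 50 μM IPTG and 0.2% rhamnose. Colonies were pooled and amplicon-sequenced on an Illumina HiSeq 2500. Fitness from DiMSum is the error-weighted combination of wild-type-normalised replicate fold changes, kanamycin over none.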
Sequence,self-splicing fitness (ln) (30 °C),self-splicing fitness (ln) (37 °C)
UGCGAGCAAUAUUACGCGGA,-2.41 ± 0.28,-2.09 ± 0.31
UGCGAGCAAUAUUACGCGUA,-4.01 ± 0.32,-1.6 ± 0.14
UGCGAGCAAUAUUACGCUAU,,-2.46 ± 0.38
UGCGAGCAAUAUUACGCUUG,-3.11 ± 0.37,-2.05 ± 0.3
UGCGAGCAAUAUUACGGCCA,-0.517 ± 0.13,0.5 ± 0.15
UGCGAGCAAUAUUACGGGCU,-2.97 ± 0.25,
UGCGAGCAAUAUUACGGGUU,-3.38 ± 0.16,-2.51 ± 0.16
UGCGAGCAAUAUUACGUAAG,-3.72 ± 0.26,-2.34 ± 0.28
UGCGAGCAAUAUUACGUAAU,-2.35 ± 0.22,-1.91 ± 0.24
UGCGAGCAAUAUUACGUCCG,-3.31 ± 0.4,-0.194 ± 0.31
UGCGAGCAAUAUUACGUCCU,-2.35 ± 0.14,-0.627 ± 0.15
UGCGAGCAAUAUUACGUGCC,-3.9 ± 0.47,-2.55 ± 0.33
UGCGAGCAAUAUUACGUGCU,,-1.79 ± 0.32
UGCGAGCAAUAUUACGUGGA,-3.04 ± 0.23,-3.49 ± 0.33
UGCGAGCAAUAUUACGUUAA,-2.48 ± 0.29,-2.45 ± 0.31
UGCGAGCAAUAUUACGUUCC,-2.19 ± 0.18,-2.66 ± 0.34
UGCGAGCAAUAUUACGUUGA,-3.05 ± 0.27,-3.53 ± 0.32
UGCUAGCAAUAUUACGACGG,-0.768 ± 0.16,-0.44 ± 0.18
UGCUAGCAAUAUUACGAGCG,-2.86 ± 0.2,-0.792 ± 0.17
UGCUAGCAAUAUUACGAUCC,-0.317 ± 0.41,
UGCUAGCAAUAUUACGAUUG,-1.16 ± 0.13,-1.51 ± 0.14
UGCUAGCAAUAUUACGCCGG,-0.985 ± 0.22,-1.88 ± 0.5
UGCUAGCAAUAUUACGCGAG,-4.4 ± 0.39,-2.11 ± 0.31
UGCUAGCAAUAUUACGCGUA,-0.838 ± 0.11,-0.531 ± 0.1
UGCUAGCAAUAUUACGCGUG,-0.934 ± 0.074,-0.462 ± 0.082
UGCUAGCAAUAUUACGCUAU,-2.75 ± 0.21,-0.801 ± 0.12

Sequence,self-splicing fitness (ln) (30 °C),self-splicing fitness (ln) (37 °C)
UGCUAGCAAUAUUACGGAUG,-0.534 ± 0.086,-0.268 ± 0.1
UGCUAGCAAUAUUACGGCCG,-0.359 ± 0.12,0.337 ± 0.14
UGCUAGCAAUAUUACGGUAC,,-0.887 ± 0.39
UGCUAGCAAUAUUACGUAAU,-2.42 ± 0.11,-1.34 ± 0.13
UGCUAGCAAUAUUACGUCCG,-0.00657 ± 0.11,0.18 ± 0.14
UGCUAGCAAUAUUACGUCUA,-1.21 ± 0.11,-0.84 ± 0.1
UGCUAGCAAUAUUACGUGCC,,-0.724 ± 0.3
UGCUAGCAAUAUUACGUUAG,-3.08 ± 0.19,-3.02 ± 0.33
UGGAAGCAAUAUUACGAAAU,-3.52 ± 0.29,-2.27 ± 0.22
UGGAAGCAAUAUUACGAAGU,-3.57 ± 0.35,
UGGAAGCAAUAUUACGACUG,-1.26 ± 0.24,-0.683 ± 0.24
UGGAAGCAAUAUUACGAUCC,-2.44 ± 0.47,-2.1 ± 0.41
UGGAAGCAAUAUUACGAUGG,-2.38 ± 0.14,-0.0527 ± 0.12
UGGAAGCAAUAUUACGCACA,-1.44 ± 0.2,0.0258 ± 0.2
UGGAAGCAAUAUUACGCAGG,-3.1 ± 0.42,-1.47 ± 0.4
UGGAAGCAAUAUUACGCCUA,0.049 ± 0.092,-0.109 ± 0.12
UGGAAGCAAUAUUACGCGGU,-2.87 ± 0.17,-2.69 ± 0.2
UGGAAGCAAUAUUACGGACC,-0.695 ± 0.088,-0.372 ± 0.11
UGGAAGCAAUAUUACGGAGG,-2.93 ± 0.27,-0.696 ± 0.15
UGGAAGCAAUAUUACGGAUU,-1.49 ± 0.08,-1.68 ± 0.12
UGGAAGCAAUAUUACGUAAA,-2.28 ± 0.21,0.0471 ± 0.21
UGGAAGCAAUAUUACGUCUC,,-2.47 ± 0.32
UGGAAGCAAUAUUACGUGCG,-0.442 ± 0.054,0.0701 ± 0.075
UGGAAGCAAUAUUACGUGGA,-2.88 ± 0.16,-0.926 ± 0.12
UGGAAGCAAUAUUACGUUUA,-0.859 ± 0.072,-0.47 ± 0.086
UGGCAGCAAUAUUACGAAAC,,-1.52 ± 0.32

Sequence,self-splicing fitness (ln) (30 °C),self-splicing fitness (ln) (37 °C)
UGGCAGCAAUAUUACGAAUG,-0.811 ± 0.061,0.188 ± 0.079
UGGCAGCAAUAUUACGACAA,-0.602 ± 0.14,-0.308 ± 0.16
UGGCAGCAAUAUUACGAGAA,-1.11 ± 0.32,-1.62 ± 0.31
UGGCAGCAAUAUUACGAGCG,-0.577 ± 0.12,0.0222 ± 0.17
UGGCAGCAAUAUUACGAGCU,-1.98 ± 0.16,-1.91 ± 0.19
UGGCAGCAAUAUUACGAGGG,-3.44 ± 0.23,-2.73 ± 0.25
UGGCAGCAAUAUUACGAGUC,-2.79 ± 0.17,-3.11 ± 0.23
UGGCAGCAAUAUUACGCCCC,-1.11 ± 0.29,-0.487 ± 0.36
UGGCAGCAAUAUUACGCGCU,,-2.45 ± 0.49
UGGCAGCAAUAUUACGCUCG,-0.792 ± 0.083,-0.0749 ± 0.11
UGGCAGCAAUAUUACGCUUG,-2.46 ± 0.12,-0.728 ± 0.15
UGGCAGCAAUAUUACGGAGG,-2.38 ± 0.12,-1.87 ± 0.15
UGGCAGCAAUAUUACGGAUG,-1.79 ± 0.17,-0.817 ± 0.19
UGGCAGCAAUAUUACGGGGA,-2.26 ± 0.13,-2.03 ± 0.14
UGGCAGCAAUAUUACGGUGA,-0.428 ± 0.097,0.214 ± 0.12
UGGCAGCAAUAUUACGGUGG,-0.928 ± 0.079,-0.811 ± 0.11
UGGCAGCAAUAUUACGUGAC,-2.83 ± 0.31,-1.22 ± 0.25
UGGCAGCAAUAUUACGUGCC,,-1.69 ± 0.26
UGGCAGCAAUAUUACGUUGU,-3.71 ± 0.29,-3.17 ± 0.3
UGGGAGCAAUAUUACGACCU,-0.992 ± 0.41,-0.238 ± 0.46
UGGGAGCAAUAUUACGACGU,-2.93 ± 0.22,-2.37 ± 0.29
UGGGAGCAAUAUUACGACUA,-1.68 ± 0.35,0.369 ± 0.3
UGGGAGCAAUAUUACGAGGG,,-1.99 ± 0.42
UGGGAGCAAUAUUACGCACU,-3.4 ± 0.35,-1.76 ± 0.33
UGGGAGCAAUAUUACGCCGC,-2.27 ± 0.47,
UGGGAGCAAUAUUACGCUCG,,-1.25 ± 0.46

Sequence,self-splicing fitness (ln) (30 °C),self-splicing fitness (ln) (37 °C)
UGGGAGCAAUAUUACGGAAA,-2.04 ± 0.31,
UGGGAGCAAUAUUACGGAUA,-2.61 ± 0.32,-2.52 ± 0.32
UGGGAGCAAUAUUACGGCCA,-1.58 ± 0.13,-0.684 ± 0.16
UGGGAGCAAUAUUACGGGCA,-2.36 ± 0.16,-0.757 ± 0.16
UGGGAGCAAUAUUACGGGUU,,-2.02 ± 0.47
UGGGAGCAAUAUUACGUAAC,-1.63 ± 0.41,
UGGGAGCAAUAUUACGUCUG,-1.46 ± 0.12,-0.899 ± 0.17
UGGGAGCAAUAUUACGUGCU,-2.65 ± 0.32,-1.05 ± 0.25
UGGGAGCAAUAUUACGUGGC,-4.39 ± 0.39,-1.68 ± 0.23
UGGGAGCAAUAUUACGUGUC,-2.08 ± 0.19,-2.59 ± 0.33
UGGGAGCAAUAUUACGUUGA,-3.73 ± 0.37,-2.06 ± 0.27
UGGGAGCAAUAUUACGUUUA,-2.62 ± 0.29,-2.92 ± 0.33
UGGUAGCAAUAUUACGACCU,-0.697 ± 0.13,0.261 ± 0.14
UGGUAGCAAUAUUACGACGU,-0.945 ± 0.12,-0.0819 ± 0.16
UGGUAGCAAUAUUACGAGCA,-0.502 ± 0.15,-0.131 ± 0.21
UGGUAGCAAUAUUACGAGCC,-2.3 ± 0.32,-1.91 ± 0.26
UGGUAGCAAUAUUACGAGCG,-0.4 ± 0.053,-0.521 ± 0.081
UGGUAGCAAUAUUACGAUGU,-3.19 ± 0.19,-2.12 ± 0.26
UGGUAGCAAUAUUACGAUUC,-2.63 ± 0.24,-2.05 ± 0.26
UGGUAGCAAUAUUACGCACG,-0.419 ± 0.17,
UGGUAGCAAUAUUACGCCUG,0.0915 ± 0.14,0.675 ± 0.2
UGGUAGCAAUAUUACGCGAG,-1.29 ± 0.17,-2.17 ± 0.24
UGGUAGCAAUAUUACGCGCA,-0.453 ± 0.1,0.351 ± 0.11

# — the supplement of paper PMC7877785
